Data published in US20170204402A1.

Tests used:
Assay in all cases: cell-based or functional assay
[1] = molecular target: AC-GFP hybrid protein (wild-type AC fused at its C-terminus to GFP, from plasmid pCm-AC-GFP) (Bordetella pertussis) (UniProt J7QLC0)
[2] = molecular target: ACM247-GFP hybrid protein (from plasmid pCm-ACM247-GFP) (Bordetella pertussis) (UniProt J7QLC0)
[3] = molecular target: ACM335-GFP hybrid protein (from plasmid pCm-ACM335-GFP) (Bordetella pertussis)
[4] = molecular target: AC (wild-type, from plasmid pCm-AC, no fused moiety) (Bordetella pertussis) (UniProt J7QLC0)
[5] = molecular target: ACM335 (from plasmid pCm-ACM335, no fused moiety) (Bordetella pertussis) (UniProt J7QLC0)
[6] = molecular target: ACM335-FKBP hybrid protein (from plasmid pCm-ACM335-FKBP) (Bordetella pertussis) (UniProt P62942)

Substance	cAMP; CaM from pTr-CaM (nmol/mg dry weigth) [1]	β gal; CaM from pTr-CaM [1] [Rel. Units]	cAMP; CaM from pTr-CaM (nmol/mg dry weigth) [2]	β gal; CaM from pTr-CaM [2] [Rel. Units]	β gal; CaM from pTr-CaM [3] [Rel. Units]	β-galactosidase (relative units) [4]	β-galactosidase (relative units) [1]	β-galactosidase (relative units) [5]	β-galactosidase (relative units) [6]	β-galactosidase (relative units) [3]
CaM (from plasmid pTr-CaM, not fused to a moiety of interest) (from UniProt P0DP23 2-149)	> 250	106	< 0.1	1	80	–	–	–	–	–
CaMVU8 (VU-8 calmodulin, from plasmid pCaMVU8) (from UniProt P0DP23 2-149)	–	–	–	–	–	6	5	7	6	6
